Data set [1] in a line: CD spectroscopy, mean residue ellipticity of the sixteen scaffold polypeptides. It is filed as physicochemical. As to conditions: error ±1000; for [θ]222 at high concentration: high concentration 30-230 μM as listed per peptide; for [θ]222 at low concentration: low concentration 1-5 μM as listed per peptide. The protocol:
The mean residue ellipticities at 222 nm, [θ]222, □ of the sixteen scaffold polypeptides were recorded at two concentrations, approximately 30 μM and approximately 1 μM, to characterize the state of aggregation, cf.
The degree of helix formation is related to the monomer-dimer equilibrium since monomers are unordered with low helical content whereas dimers are highly helical. […] While the ^1H NMR spectra have not been recorded of all sequences and of all polypeptide conjugates, it is likely that the sequences presented here are best described as molten globules.

For data set [2], the system named is thymidine kinase (TK). Briefly: Fluorescence binding studies with TK. The settings on record: 2 μM peptide, one and two equivalents of TK. The protocol: Estimating that at least 60% of the peptides were then bearing the ligand, the solution was diluted to 2 μM concentration and the protein TK was added. The fluorescence response was screened after 15 min, 45 min, 2 hrs, and 20 hrs. A maximal response was seen after 2 hours of incubation time.
A NUNC™ polystyrene 384 well plate (100 μl-volume) and pipette-tips were coated with Pluronic® overnight, then washed with H2O and dried. The fluorescence-measurement was carried out in Tris-buffers (Buffer for TK-studies: 20 mM Tris/HCl, 0.4 M NaCl, 0.3 M imidazole, 2 mM DTT, 50% glycerol, pH 7.6). Assuming that at least 60% of the dT-binder was conjugated to the polypeptides (see 0), stock-solutions were prepared with a concentration of 60 μM. The concentration of the TK stock solution was 0.10 mM. A polypeptide concentration of 2 μM in […] was used. The protein was added to wells containing the peptide conjugates to give final TK concentrations of 2 or 4 μM. Fluorescence intensities of protein-binder mixtures were compared to intensities of binders without protein and a significant change in fluorescence intensity in the presence of one equivalent of protein, in comparison to that of binder without protein, was interpreted as complexation of target protein by the binder. Binders showing a change in intensity in the presence of 2 μM protein but no further change in intensity in the presence of 4 μM protein were considered “hits”.
The dansyl probe was excited at 335 nm and emission was recorded 420-600 nm. All measurements were performed at room temperature and were made in triplicates. The wells were read after 15 min, 45 min and 2 hours.

The test system of data set [3] is thymidine kinase (TK). Briefly: Binding studies with TK in the presence of ATP (fluorescence, MALDI-TOF). The settings on record: for binding affinity to TK (in words): 1, 2 and 3 eq. TK, buffer with and without ATP; for time after which peptide is fully phosphorylated (MALDI-TOF): TK, buffer with ATP. The protocol: The fluorescence intensities were measured in presence of 1, 2 and 3 eq. TK in buffer with and without ATP. The introduction of ATP represents a realistic measurement situation as it is present in biological samples and is likely to react with the probe in the presence of TK. Data were collected 15 min, 45 min and 2 hrs after adding the enzyme. The samples for MALDI-TOF were collected appr. 5 mins, 45 mins and 2 hours after adding the enzyme to measure the change in masses.

The target in another data set is T1, HCAI (Homo sapiens, UniProt P00915).
T1 construct: purchased Sigma
The settings on record: literature, read-out: dissociation constant Kd for HCAI, cited from earlier work.

This is an account of results in patent publication US9377466B2, “Compounds and methods” (Modpro AB, priority 2010, dated 2016).

As usually defined, the Kd is the free concentration of one partner at which half of the binding sites on the other are occupied at equilibrium, for simple one-to-one binding.

Like-named read-outs stand apart in the source and are kept apart here. Ends that are not written are not given here.

T1 sequence (P00915 whole entry): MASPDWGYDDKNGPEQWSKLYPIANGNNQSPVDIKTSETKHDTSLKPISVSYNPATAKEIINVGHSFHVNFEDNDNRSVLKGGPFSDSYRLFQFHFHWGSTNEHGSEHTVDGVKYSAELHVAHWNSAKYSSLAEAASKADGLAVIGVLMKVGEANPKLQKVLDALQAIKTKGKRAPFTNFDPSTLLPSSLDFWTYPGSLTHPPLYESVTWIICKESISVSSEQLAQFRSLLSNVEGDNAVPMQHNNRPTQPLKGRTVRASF

As for “2-C37L34: SEQ ID NO: 14 NAADLEAAIRHLAERLAARGPVDAAQLAEQLAAKFEKFARAG”, in data set [1], the “[θ]222 at high concentration” value is listed as −23900 deg cm^2 dmol^−1 and the “[θ]222 at low concentration” value is −30300 deg cm^2 dmol^−1. On the same counts, the results for “1-C10L17: SEQ ID NO: 5 NAADLEAAIKHLAEALKERGPEDCEQLAEQLARAFEAFARAG” are −18200 deg cm^2 dmol^−1 and −11800 deg cm^2 dmol^−1.

“1-C15L8: SEQ ID NO: 1 NEADLEAKIRHLAEKLEARGPEDAEQLAEQLARAFEAFARAG”: in data set [1], the “[θ]222 at high concentration” value was −17800 deg cm^2 dmol^−1 and the “[θ]222 at low concentration” value was −25100 deg cm^2 dmol^−1.

Take “3-C10L17-dT: polypeptide 3-C10L17 conjugated to deoxy-thymidine (dT) probe 19 (NAADLEARIKHLAERLKARGPVDAAQLAEQLARAFEAFARAG; also: conjugated to deoxy-thymidine (dT) probe 19, site not given here)”: the “classification in fluorescence screen” value with thymidine kinase (TK) [2] is “not considered to be tight binders”. Turning to “4-C25L22-dT: polypeptide 4-C25L22 conjugated to deoxy-thymidine (dT) probe 19 (NAADLEARIRHLRERLAARGPKDAKQLAEQLARAFERFARAG; also: conjugated to deoxy-thymidine (dT) probe 19, site not given here)”, in the data set on thymidine kinase (TK) [3], the “binding affinity to TK (in words)” value is “generally good binding affinity” and the “time after which peptide is fully phosphorylated (MALDI-TOF)” value (shortened to “time”) was 5 to 10 min. Also, the “classification in fluorescence screen” value in the data set on thymidine kinase (TK) [2] is “not considered to be tight binders”. “2-C15L8: SEQ ID NO: 2 NEADLEAKIRHLAEKLAARGPVDAAQLAEQLARAFEAFARAG”: in data set [1], the “[θ]222 at high concentration” value is listed as −24900 deg cm^2 dmol^−1 and the “[θ]222 at low concentration” value is listed as −20800 deg cm^2 dmol^−1. As for “2-C37L34-dT: polypeptide 2-C37L34 conjugated to deoxy-thymidine (dT) probe 19 (NAADLEAAIRHLAERLAARGPVDAAQLAEQLAAKFEKFARAG; also: conjugated to deoxy-thymidine (dT) probe 19, site not given here)”, the “classification in fluorescence screen” value in the data set on thymidine kinase (TK) [2] was “not considered to be tight binders”. For “3-C25L22: SEQ ID NO: 11 NAADLEAAIRHLAERLAARGPKDAKQLAEQLARAFEAFARAG”, in data set [1], the “[θ]222 at high concentration” value is reported as −26400 deg cm^2 dmol^−1 and the “[θ]222 at low concentration” value is −23000 deg cm^2 dmol^−1. On the same counts, the results for “2-C10L17: SEQ ID NO: 6 NAADLEAAIKHLAEALKARGPVDAAQLAEQLARAFEAFARAG” are −23400 deg cm^2 dmol^−1 and −20400 deg cm^2 dmol^−1. In the case of “3-C15L8: SEQ ID NO: 3 NAADLEAKIRHLAEKLAARGPVDAAQLAEQLARRFEAFARAG”, in data set [1], the “[θ]222 at high concentration” value was −23400 deg cm^2 dmol^−1 and the “[θ]222 at low concentration” value was −19700 deg cm^2 dmol^−1.

In the case of “4-C15L8: SEQ ID NO: 4 NAADLEAKIRHLREKLAARGPRDAAQLAEQLARRFERFARAG”, in data set [1], the “[θ]222 at high concentration” value is listed as −22000 deg cm^2 dmol^−1 and the “[θ]222 at low concentration” value is given as −15300 deg cm^2 dmol^−1.

Regarding “3-C15L8-dT: polypeptide 3-C15L8 conjugated to deoxy-thymidine (dT) probe 19 (NAADLEAKIRHLAEKLAARGPVDAAQLAEQLARRFEAFARAG; also: conjugated to deoxy-thymidine (dT) probe 19, site not given here)”, in the data set on thymidine kinase (TK) [3], the “binding affinity to TK (in words)” value is recorded as “good but not as good as for 4-C10L17-dT” and the “time” value worked out at 45 min.

On to “4-C10L17-dT: polypeptide 4-C10L17 conjugated to deoxy-thymidine (dT) probe 19 (NAADLEARIKHLRERLKARGPRDAAQLAEQLARAFERFARAG; also: conjugated to deoxy-thymidine (dT) probe 19, site not given here)”, for which, in the data set with thymidine kinase (TK) [3], the “binding affinity to TK (in words)” value is given as “strong binding affinity” and the “time” value turned out to be 45 min.

For the substance “2-C25L22: SEQ ID NO: 10 NEADLEAAIRHLAEALAARGPKDAKQLAEQLARAFEAFARAG”, in data set [1], the “[θ]222 at high concentration” value was −25000 deg cm^2 dmol^−1 and the “[θ]222 at low concentration” value is reported as −24800 deg cm^2 dmol^−1. On the same counts, the results for “3-C37L34: SEQ ID NO: 15 NAADLEAAIRHLAERLAARGPVDAAQLAEQLARKFEKFARAG” are −22500 deg cm^2 dmol^−1 and −22200 deg cm^2 dmol^−1. On the same counts, the results for “1-C25L22: SEQ ID NO: 9 NEADLEAAIRHLAEALEARGPKDAKQLAEQLARAFEAFERAG” are −24800 deg cm^2 dmol^−1 and −18000 deg cm^2 dmol^−1.

Consider “4-C37L34: SEQ ID NO: 16 NAADLEARIRHLRERLAARGPRDAAQLAEQLARKFEKFARAG”, for which, in data set [1], the “[θ]222 at high concentration” value was −19600 deg cm^2 dmol^−1 and the “[θ]222 at low concentration” value is −14900 deg cm^2 dmol^−1. Consider “4-C25L22: SEQ ID NO: 12 NAADLEARIRHLRERLAARGPKDAKQLAEQLARAFERFARAG”, for which, in data set [1], the “[θ]222 at high concentration” value was −23700 deg cm^2 dmol^−1 and the “[θ]222 at low concentration” value is −18200 deg cm^2 dmol^−1. As to benzenesulphonamidecarboxylic acid, the Kd on HCAI (listed as benzenesulphonamide) was 1000 to 4000 nM; at HCAI it was 1100 to 3900 nM. As to “4-C15L8-dT: polypeptide 4-C15L8 conjugated to deoxy-thymidine (dT) probe 19 (NAADLEAKIRHLREKLAARGPRDAAQLAEQLARRFERFARAG; also: conjugated to deoxy-thymidine (dT) probe 19, site not given here)”, the “classification in fluorescence screen” value in the data set on thymidine kinase (TK) [2] is “not considered to be tight binders”. On to “3-C10L17: SEQ ID NO: 7 NAADLEARIKHLAERLKARGPVDAAQLAEQLARAFEAFARAG”, for which, in data set [1], the “[θ]222 at high concentration” value is −22400 deg cm^2 dmol^−1 and the “[θ]222 at low concentration” value is −20700 deg cm^2 dmol^−1.
